Results: article PMC8217500, “Sequence signatures of two public antibody clonotypes that bind SARS-CoV-2 receptor binding domain” (Nature Communications, 2021)

Key:
Details in all cases: both partners purified
Fc-tagged SARS-CoV-2 RBD = molecular target: T1, Fc-tagged SARS-CoV-2 RBD (SARS-CoV-2, Wuhan-Hu-1 (QHD43416.1), UniProt P0DTC2); test: BLI; Octet Red96e, room temperature; Fc-tagged RBD (20 μg/ml) loaded on anti-hIgG Fc Capture (AHC) biosensors, Fab in solution; 1× kinetics buffer (1× PBS pH 7.4, 0.01% BSA, 0.002% Tween 20); 60 s association, 60 s dissociation; 1:1 binding model
T1 construct: also called SARS-CoV-2 S RBD-Fc; not shown: Fc, C-terminal, kept

[1] = molecular target: T2, Fc-tagged SARS-CoV-2 receptor-binding domain (RBD), wild type (SARS-CoV-2, Wuhan-Hu-1 (QHD43416.1), UniProt P0DTC2); test: BLI; Fc-tagged RBD (20 ug/ml) loaded on anti-hIgG Fc Capture (AHC) biosensors, Fab in solution at four to five concentrations; Octet Red96e, room temperature, 1x kinetics buffer (1x PBS pH 7.4, 0.01% w/v BSA, 0.002% v/v Tween 20); 1:1 binding model
T2 construct: also called SARS-CoV-2 RBD; WT RBD; not shown: Fc, C-terminal, kept

[2] = molecular target: T3, Fc-tagged SARS-CoV-2 spike receptor-binding domain (RBD) (SARS-CoV-2, Wuhan-Hu-1 (QHD43416.1), UniProt P0DTC2); test: BLI; Fc-tagged RBD (20 ug/ml) loaded on anti-hIgG Fc Capture (AHC) biosensors, Fab in solution; room temperature; 1x PBS pH 7.4, 0.01% BSA, 0.002% Tween 20; 1:1 binding model
T3 construct: also called SARS-CoV-2 RBD; Fc-tagged RBD; source: Expi293F, transiently transfected, purified (KanCapA protein A resin); not shown: Fc (after an SSSSG linker), C-terminal, kept

B1: COV107-23 Fab (Fab, V domains shown)
VH: EVQLVESGGGLIQPGGSLRLSCAASGFTVSSNYMSWVRQAPGKGLEWVSVIYSGGSTFYADSVKGRFTISRDNSKNTLYLQMNSLRAEDTAVYYCARDLGTGLFDYWGQGTLVTVSS
VL: DIQLTQSPSFLSASVGDRVTITCRASQGISSYLAWYQQKPGKAPKLLIYAASTLQSGVPSRFSGSGSGTEFTLTISSLQPEDFATYYCQQLDSYPPGTFGPGTKVDIK
notes: also called wild-type (WT) COV107-23; source: Expi293F, transiently co-transfected, purified (CaptureSelect CH1-XL column)
B1 showed a Kd (Fc-tagged SARS-CoV-2 RBD) of 1 nM.

B2: COVA2-20 Fab, wild type (Fab, V domains shown)
VH: EVQLVESGGGLIQPGGSLRLSCAASGFTVSSNYMSWVRQAPGKGLEWVSVIYSGGSTYYADSVKGRFTISRDNSKNTLYLQMNSLRAEDTAVYYCASPLLLTPPDYYYYMDVWGKGTMVTVSS
VL: DVVMTQSPSSLSVSVGDRVTITCRASQGIRNDLGWYQQKPGKAPKRLIYAASSLQSGVPSRFSGSGSGTEFTLTISSLQPEDFATYYCLQHNSYLWTFGQGTKLEIK
With B2 the Kd [1] was 304 ± 20 nM.

B3: COVA2-20 Fab, Y58 (wild type) (Fab, V domains shown)
VH: B2 VH
VL: B2 VL
For B3, the Kd [2] was 304 nM.
